Reference: patent publication US20260174875A1 (Novo Nordisk A/S, priority 2023, published 2026)
Square brackets hold non-standard residues; d marks the D form. Chem. 28 = not defined here; Aib = CC(C)(N)C(=O)O

T1: human amylin-3(a) receptor (human, UniProt P30988 25-474; O60896 24-148)
T1 sequence (looked up) 1: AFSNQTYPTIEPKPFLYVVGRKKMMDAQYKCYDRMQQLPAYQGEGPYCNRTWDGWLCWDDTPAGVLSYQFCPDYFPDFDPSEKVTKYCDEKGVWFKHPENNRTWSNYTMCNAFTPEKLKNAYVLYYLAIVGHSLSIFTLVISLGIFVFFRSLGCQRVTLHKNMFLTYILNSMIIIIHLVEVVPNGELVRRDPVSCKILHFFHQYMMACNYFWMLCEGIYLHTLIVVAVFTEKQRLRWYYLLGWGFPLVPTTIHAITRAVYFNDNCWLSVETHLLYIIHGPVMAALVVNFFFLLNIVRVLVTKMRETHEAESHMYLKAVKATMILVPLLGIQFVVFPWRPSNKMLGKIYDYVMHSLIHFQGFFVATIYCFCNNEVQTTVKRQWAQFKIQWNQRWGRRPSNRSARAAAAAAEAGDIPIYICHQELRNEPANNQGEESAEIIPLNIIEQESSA
T1 sequence (looked up) 2: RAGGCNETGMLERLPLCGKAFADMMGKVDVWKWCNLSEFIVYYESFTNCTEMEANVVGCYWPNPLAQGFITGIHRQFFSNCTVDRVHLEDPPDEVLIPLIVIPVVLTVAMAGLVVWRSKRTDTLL

T2: human GIP receptor (human, UniProt P48546 22-466)
T2 sequence (looked up): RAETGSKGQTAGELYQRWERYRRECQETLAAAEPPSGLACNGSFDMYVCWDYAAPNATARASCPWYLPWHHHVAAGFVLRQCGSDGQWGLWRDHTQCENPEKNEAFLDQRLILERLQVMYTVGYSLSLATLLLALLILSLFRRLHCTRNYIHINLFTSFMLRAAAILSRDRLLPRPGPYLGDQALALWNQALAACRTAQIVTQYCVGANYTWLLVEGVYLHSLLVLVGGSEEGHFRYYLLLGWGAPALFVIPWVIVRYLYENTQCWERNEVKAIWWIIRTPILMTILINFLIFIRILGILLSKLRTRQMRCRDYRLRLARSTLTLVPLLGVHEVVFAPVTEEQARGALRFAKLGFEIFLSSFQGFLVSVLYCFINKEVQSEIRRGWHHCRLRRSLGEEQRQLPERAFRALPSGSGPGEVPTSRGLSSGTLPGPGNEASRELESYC

B1: Compound 45 (peptide)
peptide: H[Aib]HGTFTSDYSILLEEQAAREFIEWLLAGGPSK(Chem. 28)GALAQTLGTNEASHLSTAQTQRLSAELHELATLPRTETGSGSP-NH2
modifications: reading uncertain
B2: Compound 37 (peptide)
peptide: H[Aib]HGTFTSDYSILLEEQAAREFIEWLLAGGPSK(Chem. 28)GAPPPSGGGEASHLSTAQTARLSAELHRLADLPRTETGSGSP-NH2
modifications: reading uncertain
B3: Compound 39 (peptide)
peptide: Y[Aib]EGTFTSDYSILLEEQAAREFIEWLLAGGPSK(Chem. 28)GGQEPGQEPGEASHLSTAQTQRLSAELHELATLPRTETGSGSP-NH2
modifications: reading uncertain
B4: Compound 38 (peptide)
peptide: Y[Aib]EGTFTSDYSILLEEQAAREFIEWLLAGGPSK(Chem. 28)GGQAPGQAPGEASHLSTAQTQRLSAELHELATLPRTETGSGSP-NH2
modifications: reading uncertain
B5: Compound 36 (peptide)
peptide: H[Aib]HGTFTSDYSILLEEQAAREFIEWLLAGGPSK(Chem. 28)GEASHLSTAQTARLSAELHELATLPRTETGSGSP-NH2
modifications: reading uncertain
B6: Compound 43 (peptide)
peptide: H[Aib]HGTFTSDYSILLEEQAAREFIEWLLAGGPSK(Chem. 28)GEASQLSTAALGRLSAELHRLADLPRTETGSGSP-NH2
modifications: reading uncertain
B7: Compound 48 (peptide)
peptide: Y[Aib]EGTFTSDYSILLEEQAAREFIEWLLAGGPSSGALAQTLAQTLASHLSTAQTQRLSAELHK(Chem. 28)LATLPRTETGSGSP-NH2
modifications: reading uncertain
B8: Compound 47 (peptide)
peptide: H[Aib]HGTFTSDYSILLEEQAAREFIEWLLAGGPSK(Chem. 28)GAGQAPGQAPGASHLSTAQTQRLSAELHELATLPRTETGSGSP-NH2
modifications: reading uncertain
B9: Compound 25 (peptide)
peptide: H[Aib]HGTFTSDYSILLEEQAAREFIEWLLAGGPSK(Chem. 28)GEASELSTAALGRLSAELHRLATLPRTETGSGSP-NH2
modifications: reading uncertain
B10: Compound 28 (peptide)
peptide: Y[Aib]EGTFTSDYSILLEEQAAREFIEWLLAGGPSK(Chem. 28)GEASELSTAALARLSAELHRLATLPRTETGSGSP-NH2
modifications: reading uncertain
B11: Compound 24 (peptide)
peptide: Y[Aib]EGTFTSDYSILLEEQAAREFIEWLLAGGPSK(Chem. 28)GALAQTLFVNQASELSTAALGRLSAELHELATLPRTETGSGSP-NH2
modifications: reading uncertain
B12: Compound 30 (peptide)
peptide: H[Aib]HGTFTSDYSILLEEQAAREFIEWLLAGGPSK(Chem. 28)GAPPPSGGGEASELSTAALGRLSAELHRLATLPRTETGSGSP-NH2
modifications: reading uncertain
B13: Compound 31 (peptide)
peptide: Y[Aib]EGTFTSDYSILLEEQAAREFIEWLLAGGPSSK(Chem. 28)APPPSGGGEASELSTAALGRLSAELHRLATLPRTETGSGSP-NH2
modifications: reading uncertain
B14: Compound 23 (peptide)
peptide: Y[Aib]EGTFTSDYSILLEEQAAREFIEWLLAGGPSK(Chem. 28)GALAQTLGTNEASELSTAALGRLSAELHELATLPRTETGSGSP-NH2
modifications: reading uncertain
B15: Compound 29 (peptide)
peptide: Y[Aib]EGTFTSDYSILLEEQAAREFIEWLLAGGPSK(Chem. 28)GEASELSTAALGRLSAELHYLATLPRTETGSGSP-NH2
modifications: reading uncertain
B16: Compound 32 (peptide)
peptide: Y[Aib]EGTFTSDYSILLEEQAAREFIEWLLAGGPSK(Chem. 28)GAEASELSTAALGRLSAELHELATLPRTETGSGSP-NH2
modifications: reading uncertain
B17: Compound 27 (peptide)
peptide: Y[Aib]EGTFTSDYSILLEEQAAREFIEWLLAGGPSK(Chem. 28)GEASELSTAQLGRLSAELHRLATLPRTETGSGSP-NH2
modifications: reading uncertain

molecular target: T3, human GLP-1 receptor (human, UniProt P43220 24-463); experiment: cell-based or functional assay

hGLP-1R Potency, 1% HSA, EC50 [pM]	Binder
112	B1
188	B2
1930	B3
2350	B4
208	B5
41.5	B6
105	B7
67.5	B8

molecular target: T1, human amylin-3(a) receptor; experiment: cell-based or functional assay

hAMYR3 Potency, 1% HSA, EC50 [pM]	Binder
62.4	B1
75.7	B2
140	B3
172	B4
137	B5
56.5	B6
78.5	B7
55.8	B8

molecular target: T2, human GIP receptor; experiment: cell-based or functional assay

hGIPR Potency, 1% HSA, EC50 [pM]	Binder
132	B1
133	B2
352	B3
336	B4
226	B5
186	B6
54	B7
162	B8

molecular target: T3, human GLP-1 receptor; experiment: cell-based or functional assay; remark: another data set of the same source

hGLP-1R Potency, no HSA, EC50 [pM]	Binder
4.78	B1
2.87	B9
3.94	B2
23.7	B3
96	B10
51.5	B11
12	B4
3.19	B5
6.37	B12
47.8	B13
4.31	B6
15.3	B14
27.1	B15
64.8	B7
27.6	B16
26.2	B17
3.15	B8

molecular target: T1, human amylin-3(a) receptor; experiment: cell-based or functional assay; remark: another data set of the same source

hAMYR3 Potency, no HSA, EC50 [pM]	Binder
4.69	B1
3.22	B9
2.98	B2
5.75	B3
2.28	B10
4.24	B11
3.63	B4
3.84	B5
2.28	B12
2.69	B13
3.13	B6
5.17	B14
3.09	B15
3.2	B7
10.1	B16
3.82	B17
2.57	B8

molecular target: T2, human GIP receptor; experiment: cell-based or functional assay; remark: another data set of the same source

hGIPR Potency, no HSA, EC50 [pM]	Binder
2.63	B1
4.27	B9
2.34	B2
1.62	B3
3.5	B10
2.34	B11
1.37	B4
1.96	B5
6.8	B12
4.73	B13
4.38	B6
1.2	B14
2.62	B15
7.02	B7
8.09	B16
2.11	B17
2.02	B8
